Results on two molecules are retold here after patent US20260347455 (published 2026).

Assay [1] concerns the target T1, human BMP6 (Peprotech 120-06) (human).
T1 chain: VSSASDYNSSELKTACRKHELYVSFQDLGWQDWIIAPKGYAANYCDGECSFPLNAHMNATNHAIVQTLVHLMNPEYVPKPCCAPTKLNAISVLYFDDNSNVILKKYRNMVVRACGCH
Description: SPR, 37C, pH 7.6. In general terms: In SPR one partner is held on a chip, and binding of the other changes the refractive index at the surface.

In assay [2] the target is T1, human BMP6 (Peprotech 120-06). Description: SPR, 37C, pH 7.6, bivalent (relative KD).

B1: CL-58838 Fab (antibody, V domains shown)
VH: QVQLVESGGGLVKPGGSLRLSCAASGFTFSDYYMSWIRQAPGKGLEWVSYISISGSTIYYADSVKGRFTISRDNAMDSLYLQMNSLRAEDTAVYYCARRSSGWYDYWGQGTLVTVSS
VL: EIVLTQSPGTLSLSPGERATLSCWASQRVVYRYLAWYQRKPGQAPRLLIYGAFNRATGIPDRFSGSGSGTDFSLTISRLEPEDFAVYYCHQYGSSPPTFGQGTKVEIK
B1 yielded a Kd in assay [1] of 0.14 nM.

B2: CL-58838 IgG4 (antibody, V domains shown)
VH: B1 VH
VL: EIVLTQSPGTLSLSPGERATLSCWASQRVVYRYLAWYQRKPGQAPRLLIYGAFNRATGIPDRFSGSGSGTDFSLTISRLEPEDFAVYYCHQYGSSPPTFGQGTKVEIKR
As for B2, the Kd in assay [2] was 0.07 nM.
